Assays:
[1] = Method: The aliquots (N=6–8) of spiked plasma were then: i) immediately extracted with ethanol (final concentration 70%, for this treatment we used N=21); ii) subjected to one freeze–thaw cycle (placed at −20 °C for ∼1 h followed by thawing in an ice bath) and extracted (using 70% ethanol, final concentration) immediately upon thawing; iii) subjected to two freeze–thaw cycles and extracted immediately upon second thawing; iv) subjected to three freeze–thaw cycles and extracted immediately upon third thawing; v) kept on ice for 1 h and extracted immediately after; vi) kept on ice for 3 h and extracted immediately after; vii) kept without ice for 1 h at RT and extracted immediately after; viii) kept without ice for 3 h and extracted immediately after.
Later, an additional plasma pool was prepared of fresh plasma from some (n=5) of the healthy subjects contributing to the first pool, spiked with glucagon (0 and 40 pmol/l, final concentration), and aliquoted. Thereafter, the valiquots were kept on ice for up to 24 h. These aliquots (N=6–8 for each time point) were extracted after 1, 3, 6, 12, and 24 h, respectively, measured (see below) and compared with a set of aliquots extracted immediately after spiking with peptide. […] After extraction, peptide concentrations were analyzed using the assays described below. […]

[2] = remark: listed apart in the source
Method: From each of the original spiked plasma portions, eight to ten aliquots were distributed into low-adsorption Nunc tubes (VWR-Bie&Berntsen A/S, Herlev, Denmark). One set of samples (N=8–10) was extracted and analyzed immediately to serve as controls. The remaining eight sets were divided into two and stored at −20 °C or −80 °C. Samples (N=8–10) from each set were analyzed after 1, 3, 6, and 12 months of storage. In addition, seven portions of the new plasma pool as well as assay buffer (to which was added 6% human serum albumin (HSA) to mimick plasma), spiked with 0 and 40 pmol/l of glucagon (N=5 for each set of spiked samples), were assayed (plasma after extraction) after freezing (at −20 °C) for 0 (i.e., they were measured immediately without freezing), 1, 3, 6, 12, 24, and 72 h of storage at −20 °C.
The recovery in percent was calculated as the measured concentration in the individual, spiked plasma sample minus the concentration in the corresponding non-spiked plasma sample divided by the theoretical spiked concentration of peptide and multiplied by 100. For the presentation of data, we normalized the recovery after each treatment by adjusting for the recovery of the samples extracted immediately, set as 100% (Table 1). Differences between treatments were analyzed by one-way ANOVA for repeated measurement with post hoc Bonferroni correction. […]

[3] = Stability of glucagon in frozen assay buffer with 6% HSA; format: physicochemical; details: 40 pmol/l, -20 °C for up to 72 h
[4] = human plasma, no ice
Method: GLP-1 and glucagon (0 and 40 pmol/l) were added to the portions, whereafter they were stored at either room temperature or on ice for 1 h and measured (as described below plasma samples after extraction and buffer samples directly).

Row | Compound | Glucagon recovery at RT for 3 h, N-terminal-specific assay [1] | Glucagon stability at RT for 1 h [1] | Loss of glucagon recovery after 1 month of frozen storage [2] | Recovery of glucagon in buffer after freezing [3] | Recovery of intact GLP-1 on addition of a DPP4 inhibitor [4]
1 | glucagon 1–29 | significant (P=0.02) reduction | relatively stable | about 50% | unaffected | –
2 | CC[C@H](C)[C@H](NC(=O)[C@H](Cc1ccccc1)NC(=O)[C@H](CCC(=O)O)NC(=O)[C@H](CCCCN)NC(=O)[C@H](C)NC(=O)[C@H](C)NC(=O)[C@H](CCC(N)=O)NC(=O)CNC(=O)[C@H](CCC(=O)O)NC(=O)[C@H](CC(C)C)NC(=O)[C@H](Cc1ccc(O)cc1)NC(=O)[C@H](CO)NC(=O)[C@H](CO)NC(=O)[C@@H](NC(=O)[C@H](CC(=O)O)NC(=O)[C@H](CO)NC(=O)[C@@H](NC(=O)[C@H](Cc1ccccc1)NC(=O)[C@@H](NC(=O)CNC(=O)[C@H](CCC(=O)O)NC(=O)[C@H](C)NC(=O)[C@@H](N)Cc1c[nH]cn1)[C@@H](C)O)[C@@H](C)O)C(C)C)C(=O)N[C@@H](C)C(=O)N[C@@H](Cc1c[nH]c2ccccc12)C(=O)N[C@@H](CC(C)C)C(=O)N[C@H](C(=O)N[C@@H](CCCCN)C(=O)NCC(=O)N[C@@H](CCCNC(=N)N)C(N)=O)C(C)C [GLP-1 7–36NH2] | – | – | – | – | increased

Reference: article PMC4317691, “Stability of glucagon-like peptide 1 and glucagon in human plasma” (Endocrine Connections, 2015)
